Experimental data as given in PMC10257715, “Allosteric activation of cell wall synthesis during bacterial growth” (Nature Communications, 2023).

Biological target: the molecule itself
Experiment: cryo-EM structure; purified RodA-PBP2 complex in 0.02% DDM, 350 mM NaCl, 20 mM HEPES pH 7.5; Titan Krios 300 kV; low-resolution maps

B1: Escherichia coli PBP2, wild type, of ^EcRodA-PBP2^WT (cryo-EM sample) (enzyme, UniProt P0AD65 1-633, looked up)
chain: MKLQNSFRDYTAESALFVRRALVAFLGILLLTGVLIANLYNLQIVRFTDYQTRSNENRIKLVPIAPSRGIIYDRNGIPLALNRTIYQIEMMPEKVDNVQQTLDALRSVVDLTDDDIAAFRKERARSHRFTSIPVKTNLTEVQVARFAVNQYRFPGVEVKGYKRRYYPYGSALTHVIGYVSKINDKDVERLNNDGKLANYAATHDIGKLGIERYYEDVLHGQTGYEEVEVNNRGRVIRQLKEVPPQAGHDIYLTLDLKLQQYIETLLAGSRAAVVVTDPRTGGVLALVSTPSYDPNLFVDGISSKDYSALLNDPNTPLVNRATQGVYPPASTVKPYVAVSALSAGVITRNTTLFDPGWWQLPGSEKRYRDWKKWGHGRLNVTRSLEESADTFFYQVAYDMGIDRLSEWMGKFGYGHYTGIDLAEERSGNMPTREWKQKRFKKPWYQGDTIPVGIGQGYWTATPIQMSKALMILINDGIVKVPHLLMSTAEDGKQVPWVQPHEPPVGDIHSGYWELAKDGMYGVANRPNGTAHKYFASAPYKIAAKSGTAQVFGLKANETYNAHKIAERLRDHKLMTAFAPYNNPQVAVAMILENGGAGPAVGTLMRQILDHIMLGDNNTDLPAENPAVAAAEDH
notes: Forms dimers of the RodA-PBP2 complex when overexpressed; also called ^EcPBP2; ^EcWT; source: overexpressed, purified
stoichiometry N: 2
